According to a protein production outcome set (Wang et al. 2014):

test: label from the status in PepcDB records

Protein production, failed:
MTIQLLNDRYQVIRTLGAGGFGETYLAEDTYMPSKRRCVVKQLRPIQNNPQIYQLVQERFQREAAILEELGGATEQIPALYAYFSADGQFYLVQEWVEGDTLTGRLQQQGLFTESAIQELLVNLLPVLEYVHSKHIVHRDIKPDNIILRHRDGKPVLIDFGAVRESMGTVVNSQGNPTSSIVIGTPGYMPSEQAAGRPVYSSDLYSLGLTAIYLLTGRQPQTLEIDSQTGEIMWRQYASQMNPILASVLDKAIAYHPRDRYATARAMLDNLQSISSPIPPTQPYFAPPPVVSAPPQPTVPVAPQANVTGNNQKGILFGSLIAGGLIGASVIIGLAFTRTPQPVAENNNTSPVNSITETPVIKATPEVTQPPVTAQPIVPSPQQQVNSSPFPSITSVPIDVNINNNNYLWLSQQAVTDADLDDKDGYTLDIMRNTVFARHGRRFDNPGLQDYFNNQPWYNPIYSPKEFPIKLLTRLEQRNVDYIAAYQKRYNLRHFK
MTISIDRPAPVSSWRTYRRLLAFAKPYRLLLVAALIAALIEAAGTTGFLALMKPITDETFIYKNAEVSRWLPVQIILLFVVRGVAGYITDMAMGKSARSIARDLRIKVMAKYLRLPGSRFDSEPVPSMLIRLGSDSDQVAQAAVDAVKVMIQQSLQVIGALALMLWHSWQVTLTILVLAPVLAWVMDKVARRYRRISHSIQESGAQLLQAADQTLSSHQEVKIYGAQQTEMERYGALANRNLRLAMKVESTRGISTATVQMIGAIGLSALLFVAGAQALAGRLTAGDFVVLMTSMLTIIPGLKQLTNVQNMVQRGLASAERLFSVLDSPDEPDQGTVPLTRAKGLIEFRDVTARYPGQVNPALADVSFVAQPGTVTAIVGRSGSGKSSLIKLIPRFYEAEAGQILLDGHPVQAYALADLRRQIALVGQQVMLFDGSIADNVAFGEMRNADAGKLERAILGANAMEFVAQLPEGLQSHVGTKGGRLSGGQRQRLAIARAMLKDAPVLILDEATAALDNESERLVQDALHKLMPDRTTLVIAHRLSTIEHADQVLVMDQGRIVERGTHHQLLAQGGLYSHLHGMQFRERQA
MTITSKLKKRRSLSTLITKIIILVLAPIILGIFVQSYYFSKQIIWQEVDRTKQQTSALILNIFESHFAAIQIHHDSNSKSDVILDFYSERNEEALNYFFLSIDQSDPSHTPEFRFLTDHQGIIWDDGNAHFYGINDSMLDGLTSKVTFSNNWYYVTSITSMGARHLLLRRVPVLEPKTGEVMGYSYNAVVLDNNFALMEKLKNEGNVDNVVLVANDIPVASSLAGDESYKIFDVLKRKETQKKLDQLLIIQTPIEVNAAITNLKLLTVQDNQSVVTLQIQHFLAMLASVIGMIMIALMTKEWIENRVVEELGSLMSYTRSAREEKGFERFGGSDIEEFDHIGSTLESTFEELEAQKRSFRDLFNFALSPIMVWSEAGVLIQINPAARKELVIENDIETMHPVFKGFKDKLVPHLRMAAQGATLTGVNVPIGDKVFRWNLSPIRVDGDISGIIVQGQDITTLIEAEKQSNLARREAEKSAQARADFLAKMSHEIRTPINGILGVAQLLKDSVEAEEQKNQIDVLRHSGEHLLAVLNDILDFSKIEQGKFNIQKHPFSFADTMRTLENIYRPICENKGVELVIENQLDGNVEIFTDQVRLNQILFNLVSNAVKFTPSGCVRLHAELEQFYGADNSVLVVEISDTGIGIESDKLDEMFEPFVQEEATTTREYGGSGLGLTIVKNLVDMLDGDVQVRSQKGQGTTFVVTLPVKDRERVLAPLDSSQRVKPAELFDESLKVLLVEDNHTNAFILKAFCTKYKMQVDWAKDGLEAMEFLKDHSYDLILMDNQLPHLGGIETTKEIRQNLKLGTPIYACTADTAQETSDAFMEAGANYVLLKPIKENALHEAFVDFKQRFLIERT
MTKCGHSFCYKCIHQSLEDNNRCPKCNYVVDNIDHLYPNFLVNELILKQKQRFEEKRFKLDHSVSSTNGHRWQIFQDWLGTDQDNLDLANVNLMLELLVQKKKQLEAESHAAQLQILMEFLKVARRNKREEMSGLYSPVSEDSTVPQFEAPSPSHSSIIDSTEYSQPPGFSGSSQTKKQPWYNSTLASRRKRLTAHFEDLEQCYFSTRMSRISDDSRTASQLDEFQECLSKFTRYNSVRPLATLSYASDLYNGSSIVSSIEFDRDCDYFAIAGVTKKIKVYEYDTVIQDAVDIHYPENEMTCNSKISCISWSSYHKNLLASSDYEGTVILWDGFTGQRSKVYQEHEKRCWSVDFNLMDPKLLASGSDDAKVKLWSTNLDNSVASIEAKANVCCVKFSPSSRYHLAFGCADHCVHYYDLRNTKQPIMVFKGHRKAVSYAKFVSGEEIVSASTDSQLKLWNVGKPYCLRSFKGHINEKNFVGLASNGDYIACGSENNSLYLYYKGLSKTLLTFKFDTVKSVLDKDRKEDDTNEFVSAVCWRALPDGESNVLIAANSQGTIKVLELV
